Experimental data taken from the MegaScale stability set (Tsuboyama et al. 2023).

B1: EEHEE_rd4_0763 (parent)
chain: LTVHVGNVTYHFDNPEQAEEWAKRMAKKYQGQIHVKDGQFRIE

Variants of: B1
Test: folding stability dG (cDNA display proteolysis); higher = more stable
Settings: PBS, room temperature

Folding stability dG [kcal/mol], by site and new letter:
H34: P 0.852 | Y 1.79 | I 2.21 | W 1.42 | Q 1.61 | V 2.26 | M 1.69 | L 1.75 | A 1.56 | S 1.83 | D 1.26 | T 2.03
G6: A 1.41 | Q 1.18 | F 1.84 | V 0.969 | L 1.47 | I 1.18 | C 2.58
Y29: L 1.68 | M 1.35 | G 0.732 | F 1.53 | E 0.616 | K 0.706 | I 1.32 | V 1.27 | C 2.16
E16: L 1.68 | V 1.75 | D 1.59 | M 1.66
Q39: R 1.09 | D 1.63 | T 1.29 | F 1.17 | L 0.835 | H 1.76
V8: P 0.43 | L 1.66 | H 1.72 | S 1.37 | M 1.69 | T 1.53 | D 1.19 | Q 1.58 | A 1.58 | F 1.8
H11: T 1.67 | A 1.31 | D 0.923 | R 1.58 | V 1.61 | K 1.6 | E 1.23 | N 1.25 | S 1.43 | W 1.71
E43: G 1.26 | P 1.15 | S 1.4 | W 1.55 | N 1.06 | I 2 | Y 1.71
A18: R 0.882 | V 0.996 | I 1.01 | T 0.517 | Q 0.969 | S 0.551 | G 1.25 | Y 1.17 | P -0.12 | M 1.21
K23: D 0.88 | Y 1.62 | M 1.61 | A 1.3 | I 1.76 | Q 1.55 | T 1.32 | L 1.69 | C 2.37 | E 1.2 | V 1.56 | W 1.56
G31: T 1.52 | F 1.69 | W 1.86 | Q 1.25 | V 1.78 | S 1.47 | M 2.06 | C 2.42 | H 1.46 | K 1.24 | E 0.971 | I 1.82 | N 1.02 | A 1.86
K28: E 1.37 | R 1.78 | L 1.83 | I 1.61 | Q 1.35 | Y 1.72 | P 0.519 | A 1.23 | N 0.823 | M 1.5
M25: Q 0.839 | K 0.502 | H 0.756 | Y 1.45 | G 0 | I 1.44 | W 1.34 | F 1.42 | A 0.874
Q30: E 1.33 | F 1.43 | S 1.66 | M 1.59 | N 2.06 | I 1.18 | L 1.39 | G 2.24 | K 1.92 | V 1.23 | H 2.02
W21: C 2.55 | D -0.466 | M 0.944
Q17: R 1.57 | E 1.84 | F 1.36 | K 1.63 | L 1.71
K27: A 1.83 | C 2.38 | P 0.724 | H 1.53 | N 1.39 | E 1.67 | Y 1.51
Q32: P 0.998 | G 1.01 | M 1.49 | L 1.48 | F 1.53 | A 1.52 | W 1.21 | V 2.02 | Y 1.51
A26: M 1.28 | R 1.06 | N 0.911 | E 0.642 | D 0.393 | Q 0.967 | T 0.749 | K 0.73
L1: P 1.73 | D 0.974 | A 2.1 | H 2.13 | Y 2.92 | C 2.7 | F 2.66 | I 1.7 | M 1.84
F12: V 0.101 | K -0.024 | A 0.274 | M 0.22 | H 0 | P -0.199 | C 1.44 | T -0.063 | S 0.081 | Q -0.143
I33: T 0.877 | S 0.865 | D 0.877 | Q 0.795 | M 1.21 | H 0.852 | K 0.715 | A 1.03 | N 0.836
R41: T 2.02 | I 2.6 | G 1.3 | C 2.95 | W 3.13 | N 1.66 | V 2.45 | Q 1.66 | L 1.98
A22: V 1.23 | W 1.27 | I 1.4 | L 1.36 | R 1.01
N14: E 1.36 | I 1.49 | A 1.42 | D 1.81 | K 1.6 | P -0.002
I42: K 0.942 | P 1.14 | M 0.632 | S 1.06 | R 0.894 | G 1.2 | T 1.08 | H 1.12
N7: E 1.37 | S 1.7 | G 1.71 | Y 1.62 | F 1.62 | Q 1.56 | P 1.45
D13: I 1.48 | A 1.43 | V 1.46 | T 1.74
E19: A 1.71 | I 1.87 | Y 2.35 | T 1.41 | H 1.72 | M 2.07
R24: Y 1.87 | V 1.58 | E 1.43 | D 0.976 | N 1.09 | G 0.948 | L 1.94 | S 1.33 | F 1.79
V35: M 1.61 | C 2.27 | Q 1.2 | F 2.22 | H 1.21 | P 0.636 | K 1.17
Y10: T 0.369 | L 0.997 | C 1.77 | Q 0.381 | N 0.135 | K 0.806 | V 0.913 | W 1.85
D37: H 0.769 | M 0.773 | Y 0.742 | F 0.868
G38: N 1.36 | H 1.02 | D 1.25 | S 0.873 | R 0.874
F40: D 1.03 | S 1.03 | P 1.01 | L 2.01 | V 1.55 | E 1.15
H4: K 1.68 | N 1.27 | P 0.289 | D 0.78 | I 1.9 | M 1.8
T2: N 1.14 | W 1.5 | E 1.48 | P 0.538 | Q 1.53 | G 0.823
E20: N 1.58 | F 1.57 | R 1.81 | P -0.521 | C 2.44 | S 1.62 | M 1.7 | K 1.8 | T 1.39 | Q 1.69 | W 1.92
K36: T 1.73 | D 1.51 | G 1.39 | P 0.849 | L 1.7 | S 1.69
P15: I 1.78 | G 1.23 | V 1.71 | F 1.94
V3: H 0.452 | W 0.755 | G 0.606 | L 1.06 | P 0.241 | K 0.424 | M 0.815 | A 0.668
V5: C 2.66 | L 1.54 | Q 0.495 | H 1.26 | R 0.733 | M 1.48 | D 0.649
T9: P 0.963 | G 0.696 | N 0.836 | C 2.01 | Q 1.29 | A 1.58 | D 1.01 | F 1.37 | M 1.55 | R 1.4 | W 1.28
